Positions count from the first letter of the chain named. Numbers in names are those of the source. Where two headings read alike, the source gives them in different places.
How the values were obtained:
integrin αVβ3 [1] = target: T1, integrin αVβ3 (UniProt P06756 31-992; P05106 27-718); test: phage ELISA, coated integrin, anti-M13-HRP
T1 construct: Coated on the ELISA plate
Description: (§1) The phage vectors were independently transformed into NEBαF′tet competent E. coli cells. Phages produced by the transformed cells were tittered and their concentrations adjusted by dilution to 10¹³ per ml. The ability of the soluble MICA molecules in each of the phage preparations was assayed by an ELISA using the intended target proteins, integrin αVβ3 or αVβ5, as capture agents on the ELISA plate. After the respective integrins were adhered to the bottoms of the wells of the ELISA plate, the wells were washed and blocked, as well known in the field. Each sample (100 μl) of phage preparation was added to wells containing αVβ3 or αVβ5, incubated and washed. The phages captured by the integrins were detected by HRP-conjugated antibody to the M13 phage coat developed with Ultra TMB-ELISA substrate and the optical densities read.

integrin αVβ5 [2] = target: T2, integrin αVβ5 (UniProt P06756 31-992; P18084 24-719); test: phage ELISA, coated integrin, anti-M13-HRP
T2 construct: Coated on the ELISA plate
Description: as §1

integrin αVβ3 [3] = target: T1, integrin αVβ3; test: phage ELISA, coated integrin, anti-M13-HRP; remark: listed apart in the source
Description: (§2) The ELISA assays of the integrin target-binding of M13 phages displaying α3 domains with binding peptide inserts grafted into more than one loop were performed as follows. After the respective integrins were adhered to the bottoms of the wells of the ELISA plate, the wells were washed and blocked. Each sample (100 μl) of phage preparation was added to wells containing αVβ3 or αVβ5, incubated and washed. The phages captured by the integrins were detected by HRP-conjugated antibody to the M13 phage coat developed with Ultra TMB-ELISA substrate and the optical densities read.

integrin αVβ5 [4] = target: T2, integrin αVβ5; test: phage ELISA, coated integrin, anti-M13-HRP; remark: listed apart in the source
Description: as §2

integrin αVβ3 [5] = target: T1, integrin αVβ3; test: phage ELISA, coated integrin, anti-M13-HRP; remark: listed apart in the source
integrin αVβ3 [6] = target: T1, integrin αVβ3; test: ELISA, coated integrin, anti-MICA-HRP
Description: (§3) The ability of the soluble MICA molecules in each of the concentrated supernatants to bind target molecules was assayed by an ELISA using the intended target proteins, integrin αVβ3 or αVβ5, as capture agents on the ELISA plate. After the respective integrins were adhered to the bottoms of the wells of the ELISA plate, the wells were washed and blocked, as well known in the field. Each sample (100 μl) of soluble MICA produced and secreted by 293T cells was added to wells containing αVβ3 or αVβ5, incubated and washed. The soluble MICA molecules captured by the integrins were detected by HRP-conjugated antibody to human MICA developed with Ultra TMB-ELISA substrate and the optical densities read. The quantity of soluble MICA in each sample was determined by the MICA-specific ELISA. […] The ELISA signal from a non-binding, negative control MICA (generated by pSW273) was subtracted from each integrin binding signal.

integrin αVβ5 [7] = target: T2, integrin αVβ5; test: ELISA, coated integrin, anti-MICA-HRP
Description: as §3

integrin αVβ3 [8] = target: T1, integrin αVβ3; test: ELISA, coated integrin, anti-MICA-HRP; remark: listed apart in the source
Description: (§4) ELISA assays of the integrin target-binding of soluble MICA molecules generated from pKK128-131 were performed as follows. After the respective integrins were adhered to the bottoms of the wells of the ELISA plate, the wells were washed and blocked. Each sample (100 μl) of culture supernatant was added to wells containing αVβ3 or αVβ5, incubated and washed. The soluble MICA molecules captured by the integrins were detected by HRP-conjugated antibody to human MICA developed with Ultra TMB-ELISA substrate and the optical densities read. The quantity of soluble MICA in each sample was determined by the MICA-specific ELISA.

integrin αVβ5 [9] = target: T2, integrin αVβ5; test: ELISA, coated integrin, anti-MICA-HRP; remark: listed apart in the source
Description: as §4

biotinylated human NKG2D [10] = target: T3, biotinylated human NKG2D (human, UniProt P26718 78-216, limits assumed, biotinylated (site not stated)); test: BLI (Octet), Kd = kOFF/kON
T3 construct: Surface-coated in biolayer interferometry (Octet); also called recombinant biotinylated NKG2D
T3 sequence (looked up): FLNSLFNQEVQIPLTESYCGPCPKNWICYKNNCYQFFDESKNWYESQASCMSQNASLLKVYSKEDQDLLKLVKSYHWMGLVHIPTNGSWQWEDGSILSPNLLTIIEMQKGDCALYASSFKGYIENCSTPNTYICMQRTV

biotinylated human NKG2D [11] = target: T3, biotinylated human NKG2D; test: BLI (Octet), coated biotinylated human NKG2D, 100 nM analyte
human NKG2D-Fc = target: T4, human NKG2D-Fc (human, UniProt P26718 78-216, limits assumed); test: competition ELISA, 2 nM human NKG2D-Fc on coated WT sMICA
T4 construct: construct not described; also called human NKG2D-Fc reagent; not shown: Fc part
T4 sequence (looked up): T3 sequence (looked up)
Source text: As for the NKG2D ligands (NKG2DLs) in the above example, we attached polypeptides directly to each of these 4 modified α1-α2 NKG2DLs using a linker peptide. The 4 His-tagged proteins (SEQ ID NOs.: 131-134) were expressed in insect cells and purified to characterize their NKG2D binding affinities and kinetic binding parameters. Using a competitive binding ELISA, we determined the relative NKG2D binding affinities of the 4 modified α1-α2 variants.

T1 sequence (P06756 31-992, chain 1 of 2): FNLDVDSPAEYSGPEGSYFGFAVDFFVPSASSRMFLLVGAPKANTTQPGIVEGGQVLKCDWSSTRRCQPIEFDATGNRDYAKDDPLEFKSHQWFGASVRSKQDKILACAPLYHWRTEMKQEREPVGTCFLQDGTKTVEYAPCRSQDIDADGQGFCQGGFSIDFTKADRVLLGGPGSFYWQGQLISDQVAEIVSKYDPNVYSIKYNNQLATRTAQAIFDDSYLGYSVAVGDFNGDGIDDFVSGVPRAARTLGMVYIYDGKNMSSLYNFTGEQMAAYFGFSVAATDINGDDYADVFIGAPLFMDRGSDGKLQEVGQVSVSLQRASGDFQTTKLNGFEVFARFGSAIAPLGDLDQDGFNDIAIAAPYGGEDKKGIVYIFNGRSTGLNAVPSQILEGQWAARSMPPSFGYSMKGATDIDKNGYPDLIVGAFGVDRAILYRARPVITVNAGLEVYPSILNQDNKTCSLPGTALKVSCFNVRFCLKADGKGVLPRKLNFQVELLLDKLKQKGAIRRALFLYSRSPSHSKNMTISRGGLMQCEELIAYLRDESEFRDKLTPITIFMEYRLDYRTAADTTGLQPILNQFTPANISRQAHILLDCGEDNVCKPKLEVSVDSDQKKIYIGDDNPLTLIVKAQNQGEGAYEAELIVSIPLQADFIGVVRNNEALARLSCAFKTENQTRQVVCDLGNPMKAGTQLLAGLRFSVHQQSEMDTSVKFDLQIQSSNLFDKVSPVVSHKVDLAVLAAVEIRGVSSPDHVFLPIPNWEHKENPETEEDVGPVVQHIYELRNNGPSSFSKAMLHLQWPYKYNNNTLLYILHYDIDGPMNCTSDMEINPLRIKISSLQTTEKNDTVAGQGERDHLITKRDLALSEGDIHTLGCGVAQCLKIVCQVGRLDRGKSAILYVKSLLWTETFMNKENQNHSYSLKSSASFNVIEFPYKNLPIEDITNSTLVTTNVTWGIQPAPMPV
T1 sequence (P05106 27-718, chain 2 of 2): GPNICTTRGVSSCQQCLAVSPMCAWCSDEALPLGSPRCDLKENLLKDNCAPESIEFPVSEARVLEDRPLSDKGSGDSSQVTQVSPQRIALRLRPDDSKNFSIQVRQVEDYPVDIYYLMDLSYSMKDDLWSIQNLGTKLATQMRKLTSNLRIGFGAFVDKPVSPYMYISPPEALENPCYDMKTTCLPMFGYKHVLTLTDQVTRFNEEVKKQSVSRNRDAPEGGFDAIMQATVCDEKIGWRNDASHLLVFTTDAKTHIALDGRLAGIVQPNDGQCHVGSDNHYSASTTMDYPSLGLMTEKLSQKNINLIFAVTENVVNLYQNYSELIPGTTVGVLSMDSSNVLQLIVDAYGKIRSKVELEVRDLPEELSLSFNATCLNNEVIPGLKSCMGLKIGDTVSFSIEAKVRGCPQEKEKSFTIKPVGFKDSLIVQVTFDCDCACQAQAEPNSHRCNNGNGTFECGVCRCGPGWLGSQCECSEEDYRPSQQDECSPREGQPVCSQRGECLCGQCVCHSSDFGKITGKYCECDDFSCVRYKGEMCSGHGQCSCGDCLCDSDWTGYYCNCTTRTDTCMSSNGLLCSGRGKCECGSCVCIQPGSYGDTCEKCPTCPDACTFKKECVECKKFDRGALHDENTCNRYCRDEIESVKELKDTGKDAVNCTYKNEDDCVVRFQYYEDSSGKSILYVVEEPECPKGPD
T2 sequence (P06756 31-992, chain 1 of 2): as the sequence (P06756 31-992, chain 1 of 2) above
T2 sequence (P18084 24-719, chain 2 of 2): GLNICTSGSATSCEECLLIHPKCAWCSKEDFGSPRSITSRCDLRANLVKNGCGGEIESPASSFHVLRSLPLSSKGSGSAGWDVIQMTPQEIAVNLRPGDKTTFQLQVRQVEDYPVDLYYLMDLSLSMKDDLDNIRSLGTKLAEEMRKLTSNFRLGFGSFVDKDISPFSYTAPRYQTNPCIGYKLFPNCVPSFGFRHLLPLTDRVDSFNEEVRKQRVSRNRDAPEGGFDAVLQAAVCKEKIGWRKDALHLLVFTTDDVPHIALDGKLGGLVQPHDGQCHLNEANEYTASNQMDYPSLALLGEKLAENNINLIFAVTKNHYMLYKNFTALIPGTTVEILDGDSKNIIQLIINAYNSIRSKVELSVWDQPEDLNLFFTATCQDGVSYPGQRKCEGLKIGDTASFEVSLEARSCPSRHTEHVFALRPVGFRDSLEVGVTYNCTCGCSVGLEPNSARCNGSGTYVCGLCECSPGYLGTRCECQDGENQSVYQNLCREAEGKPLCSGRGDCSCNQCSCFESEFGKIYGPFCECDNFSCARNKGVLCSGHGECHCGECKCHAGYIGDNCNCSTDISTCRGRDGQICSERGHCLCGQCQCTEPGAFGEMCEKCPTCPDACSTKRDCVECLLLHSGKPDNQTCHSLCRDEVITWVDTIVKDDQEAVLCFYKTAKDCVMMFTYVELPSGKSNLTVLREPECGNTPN

B1: M13 phage pKK106 displaying wild type MICA α3 domain fused to pIII (other)
chain: TVPPMVNVTRSEASEGNITVTCRASGFYPWNITLSWRQDGVSLSHDTQQWGDVLPDGNGTYQTWVATRICQGEEQRFTCYMEHSGNHSTHPVPSGK
notes: also called WT; not shown: C-terminal portion of M13 gene III protein, fused at codon position 198
Binder B1 has a αvβ3 signal (integrin αVβ3 [1]) of 0 OD, a αvβ5 signal (integrin αVβ5 [2]) of 0 OD and a αvβ3 signal (integrin αVβ3 [3]) of 0 OD. For the same binder, the αvβ5 signal (integrin αVβ5 [4]) was 0 OD.

B2: M13 phage pKK93 displaying MICA α3 domain with loop 1 insert 3.2 (designed binder)
chain: TVPPMVNVTRTSRGDHPRTQVTCRASGFYPWNITLSWRQDGVSLSHDTQQWGDVLPDGNGTYQTWVATRICQGEEQRFTCYMEHSGNHSTHPVPSGK
notes: also called 1-3.2; not shown: C-terminal portion of M13 gene III protein, fused at codon position 198
Binder B2 has a αvβ3 signal (integrin αVβ3 [1]) of 0.284 OD, a αvβ5 signal (integrin αVβ5 [2]) of 0.291 OD and a αvβ3 signal (integrin αVβ3 [3]) of 0.616 OD. For the same binder, the αvβ5 signal (integrin αVβ5 [4]) was 0.774 OD.

B3: M13 phage pKK91 displaying MICA α3 domain with loop 3 insert His10sp (designed binder)
chain: TVPPMVNVTRSEASEGNITVTCRASGFYPWNITLSWRQDGVSLSHDTQQWGDVLPDGNGTYQTWVATRISGGSGGGSHHHHHHHHHHSGGSGGGCYMEHSGNHSTHPVPSGK
notes: also called 3-His10; not shown: C-terminal portion of M13 gene III protein, fused at codon position 198
Binder B3 has a αvβ3 signal (integrin αVβ3 [5]) of 0.303 OD and a αvβ5 signal (integrin αVβ5 [2]) of 0.078 OD.

B4: soluble MICA generated from pKK46 (loop 1 insert extended 5.1sp) (designed binder)
chain: HHHHHHEPHSLRYNLTVLSWDGSVQSGFLTEVHLDGQPFLRCDRQKCRAKPQGQWAEDVLGNKTWDRETRDLTGNGKDLRMTLAHIKDQKEGLHSLQEIRVCEIHEDNSTRSSQHFYYDGELFLSQNLETEEWTMPQSSRAQTLAMNVRNFLKEDAMKTKTHYHAMHADCLQELRRYLKSGVVLRRTVPPMVNVTSGGSGGGSVTRGDTFTQSSGGSGGGVTCRASGFYPWNITLSWRQDGVSLSHDTQQWGDVLPDGNGTYQTWVATRICQGEEQRFTCYMEHSGNHSTHPVPSGK
notes: From pKK34 (His6, Glu125); secreted by 293T cells; also called 1-5.1sp
With B4 the αvβ3 signal (integrin αVβ3 [6]) was 0.384 OD, the αvβ3 signal/ng (integrin αVβ3 [6]) was 9.2 signal/ng MICA and the αvβ5 signal (integrin αVβ5 [7]) was 1.06 OD. It also gave a αvβ5 signal/ng (integrin αVβ5 [7]) of 25.5 signal/ng MICA, a αvβ3 signal (integrin αVβ3 [8]) of 0.467 OD and a αvβ3 signal/ng (integrin αVβ3 [8]) of 9.42 signal/ng MICA. The αvβ5 signal (integrin αVβ5 [9]) was 0.66 OD and the αvβ5 signal/ng (integrin αVβ5 [9]) was 13.3 signal/ng MICA.

B5: WT α1-α2 domain soluble MICA protein (competitor and analyte) (ligand)
chain: EPHSLRYNLTVLSWDGSVQSGFLTEVHLDGQPFLRCDRQKCRAKPQGQWAEDVLGNKTWDRETRDLTGNGKDLRMTLAHIKDQKEGLHSLQEIRVCEIHEDNSTRSSQHFYYDGELFLSQNLETKEWTMPQSSRAQTLAMNVRNFLKEDAMKTKTHYHAMHADCLQELRRYLKSGVVLRRTVPPMVQVTRSEASGGSGDRVTITCRASQDVSTAVAWYQQKPGKAPKLLIYSASFLYSGVPSRFSGSGSGTDFTLTISSLQPEDFATYYCQQSYTTPPTFGQGTKVEIKGGSSRSSSSGGGGSGGGGEVQLVESGGGLVQPGGSLRLSCAASGFTFTSTGISWVRQAPGKGLEWVGRIYPTNGSTNYADSVKGRFTISADTSKNTAYLQMNSLRAEDTAVYYCARTYGIYDLYVDYTEYVMDYWGQGTLVTVSSGGSSRSSSSGGGGSGGGGDIQMTQSPSSLSASGGSGQITVTCRASGFYPWNITLSWRQDGVSLSHDTQQWGDVLPDGQGTYQTWVATRISQGEEQRFTCYMEHSGQHSTHPVPSGKGSHHHHHH
notes: also called wild-type (WT); WT MICA
Binder B5 has a Kd (biotinylated human NKG2D [10]) of 13.8 nM, a koff (biotinylated human NKG2D [11]) of 0.0018 s⁻¹ and a kon (biotinylated human NKG2D [11]) of 130000 M⁻¹ s⁻¹. It also gave an IC50 (human NKG2D-Fc) of 19.4 nM.

B6: WED-MICA (WED-α1-α2 domain; N69W, K152E, K154D) (designed binder)
chain: B5 chain with N69W, K152E, K154D
notes: Whole entry as named
In the case of B6, the “apparent Kd (pooled screen)” value (biotinylated human NKG2D [10]) is reported as 5.9 nM, the “apparent koff (pooled screen)” value (biotinylated human NKG2D [11]) is reported as 0.0017 s⁻¹ and the “apparent kon (pooled screen)” value (biotinylated human NKG2D [11]) is reported as 290000 M⁻¹ s⁻¹. For the same binder, the IC50 (human NKG2D-Fc) was 4.4 nM.

B7: M13 phage pKK136 displaying MICA α3 domain with loop 1 insert 5.1sp and loop 3 insert 3.2sp (designed binder)
chain: TVPPMVNVTSGGSGGGSVTRGDTFTQSSGGSGGGVTCRASGFYPWNITLSWRQDGVSLSHDTQQWGDVLPDGNGTYQTWVATRISGGSGGGSTSRGDHPRTQSGGSGGGCYMEHSGNHSTHPVPSGK
notes: also called 1-5.1sp/3-3.2sp; not shown: C-terminal portion of M13 gene III protein, fused at codon position 198
B7 gave a αvβ3 signal (integrin αVβ3 [3]) of 2.46 OD and a αvβ5 signal (integrin αVβ5 [4]) of 4.28 OD.
